{
  "source": "paper PMC3395087",
  "about": "(The EMBO Journal, 2012)",
  "binders": {"B1": {"name": "GST–p57 (mouse, wild type) phosphorylated in vitro by activated p38 SAPK (natural protein)", "chain": "MERLASSDTFPVIARSSACRSLFGPVDHEELGRELRMRLAELNAEDQNRWDFNFQQDVPLRGPGRLQWMEVDSESVPAFYRETVQVGRCRLQLGPRPPPVAVAVIPRSGPPAGEAPDGLEEAPEQPPSAPASAVVAEPTPPATPAPASDLTSDPIPEVTLVATSDPTPDPIPDANPDVATRDGEEQVPEQVSEQGEESGAEPGDELGTEPVSEQGEEQGAEPVEEKDEEPEEEQGAEPVEEQGAEPVEEQNGEPVEEQDENQEQRGQELKDQPLSGIPGRPAPGTAAANANDFFAKRKRTAQENKASNDVPPGCPSPNVAPGVGAVEQTPRKRLR", "modifications": "phosphothreonine at T143 (phosphorylated in vitro by activated GST–p38 SAPK)"}},
  "biological_target": "GST–CDK2/His–CyclinA complex (human | bovine, UniProt P24941 1-298; P30274 1-430)",
  "sequence (P30274 whole entry, one chain of several)": "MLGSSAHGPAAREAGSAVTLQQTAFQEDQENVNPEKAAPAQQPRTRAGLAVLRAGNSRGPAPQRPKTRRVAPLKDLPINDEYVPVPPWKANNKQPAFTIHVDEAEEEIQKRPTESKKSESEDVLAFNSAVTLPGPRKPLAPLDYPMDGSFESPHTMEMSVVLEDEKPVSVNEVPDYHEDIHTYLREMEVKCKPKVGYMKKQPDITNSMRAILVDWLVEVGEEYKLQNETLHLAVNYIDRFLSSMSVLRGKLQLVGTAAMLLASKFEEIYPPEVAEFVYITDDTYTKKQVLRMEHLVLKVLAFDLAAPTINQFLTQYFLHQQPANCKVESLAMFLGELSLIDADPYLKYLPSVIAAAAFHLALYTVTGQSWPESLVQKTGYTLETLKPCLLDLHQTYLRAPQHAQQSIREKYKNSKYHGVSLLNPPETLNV",
  "assay": "co-IP",
  "data": [
    {"binder": "B1", "values": [
      {"measurement": "fold increase of binding against non-phosphorylated GST–p57", "value": "~4", "unit": "fold"}
    ]}
  ]
}
